Test results: patent US20200216495A1 (ADRX, published 2020)
Values joined by “and” are separate entries in the source; they are usually repeats but may differ in a detail not shown here. Equal entries are not always repeated. Square brackets hold non-standard residues; d marks the D form. Ends that are not written are not given here. dMet(O) = CS(=O)CC[C@@H](N)C(=O)O

B1: fhirlewh (PEPTIDE ID NO: 139) (peptide)
peptide: [dF][dH][dI][dR][dL][dE][dW][dH]
B2: frlkvrwf (PEPTIDE ID NO: 4) (peptide)
peptide: [dF][dR][dL][dK][dV][dR][dW][dF]
B3: kikikw (PEPTIDE ID NO: 66) (peptide)
peptide: [dK][dI][dK][dI][dK][dW]
B4: wrlkvnw (PEPTIDE ID NO: 296) (peptide)
peptide: [dW][dR][dL][dK][dV][dN][dW]
B5: lkirixy (PEPTIDE ID NO: 297) (peptide)
peptide: [dL][dK][dI][dR][dI][dMet(O)][dY]
B6: fkirihhy (PEPTIDE ID NO: 122) (peptide)
peptide: [dF][dK][dI][dR][dI][dH][dH][dY]
B7: rlkvrww (PEPTIDE ID NO: 298) (peptide)
peptide: [dR][dL][dK][dV][dR][dW][dW]
B8: wrirlryw (PEPTIDE ID NO: 104) (peptide)
peptide: [dW][dR][dI][dR][dL][dR][dY][dW]
B9: lkiwihyh (PEPTIDE ID NO: 299) (peptide)
peptide: [dL][dK][dI][dW][dI][dH][dY][dH]
B10: prirlhw (PEPTIDE ID NO: 33) (peptide)
peptide: [dP][dR][dI][dR][dL][dH][dW]
B11: hyhirikl (PEPTIDE ID NO: 300) (peptide)
peptide: [dH][dY][dH][dI][dR][dI][dK][dL]
B12: wrlavrw (PEPTIDE ID NO: 301) (peptide)
peptide: [dW][dR][dL][dA][dV][dR][dW]
B13: vrwwwrlk (PEPTIDE ID NO: 204) (peptide)
peptide: [dV][dR][dW][dW][dW][dR][dL][dK]
B14: wrlriww (PEPTIDE ID NO: 103) (peptide)
peptide: [dW][dR][dL][dR][dI][dW][dW]
B15: lkifiyyh (PEPTIDE ID NO: 302) (peptide)
peptide: [dL][dK][dI][dF][dI][dY][dY][dH]
B16: rirwrw (PEPTIDE ID NO: 50) (peptide)
peptide: [dR][dI][dR][dW][dR][dW]
B17: wikiwr (PEPTIDE ID NO: 29) (peptide)
peptide: [dW][dI][dK][dI][dW][dR]
B18: fhihikfh (PEPTIDE ID NO: 437) (peptide)
peptide: [dF][dH][dI][dH][dI][dK][dF][dH]
B19: riklrw (PEPTIDE ID NO: 24) (peptide)
peptide: [dR][dI][dK][dL][dR][dW]
B20: lkiriayh (PEPTIDE ID NO: 303) (peptide)
peptide: [dL][dK][dI][dR][dI][dA][dY][dH]
B21: rirlrw (PEPTIDE ID NO: 38) (peptide)
peptide: [dR][dI][dR][dL][dR][dW]
B22: rlrihww (PEPTIDE ID NO: 164) (peptide)
peptide: [dR][dL][dR][dI][dH][dW][dW]
B23: fririhhf (PEPTIDE ID NO: 113) (peptide)
peptide: [dF][dR][dI][dR][dI][dH][dH][dF]
B24: wmlrihw (PEPTIDE ID NO: 304) (peptide)
peptide: [dW][dM][dL][dR][dI][dH][dW]

Molecular target: Tau40 P301L protein (human)
Assay: cell-based or functional assay

Binder | IC50, Tau40 assay (ThT)
B1 | 1860 nM and 2190 nM
B2 | 1870 nM and 1910 nM and 870 nM
B3 | 1870 nM
B4 | 1870 nM
B5 | 1880 nM
B6 | 1890 nM and 910 nM
B7 | 1900 nM
B8 | 1910 nM and 2450 nM
B9 | 1910 nM
B10 | 1940 nM and 1950 nM
B11 | 1940 nM
B12 | 1940 nM
B13 | 740 nM
B14 | 1980 nM
B15 | 1990 nM
B16 | 2020 nM
B17 | 2020 nM
B18 | 2020 nM
B19 | 2030 nM and 2060 nM
B20 | 2030 nM
B21 | 2040 nM and 2200 nM
B22 | 2050 nM
B23 | 740 nM and 810 nM
B24 | 2070 nM
